The source of these data is patent publication US10844127 (MERUS N V, dated 2020).

Substitutions are numbered along the chain they refer to. Like-named read-outs stand apart in the source and are kept apart here.

The target of assay [1] is T1, human EGFR, full length (human, UniProt P00533 25-1210). Nature of the assay: cell-based or functional assay.
The target in assay [2] is T2, mouse EGFR ECD fused to human IgG1 Fc (Sino Biologicals cat. nr. 51091-M02H) (mouse; human, UniProt Q01279 25-647).
T2 construct: extracellular domain; also called murine EGFR; not shown: human IgG1 Fc
Nature of the assay: ELISA on coated mouse EGFR ECD-human IgG1 Fc. (An ELISA detects its analyte on a solid surface through an enzyme-linked reagent.)

The target of assay [3] is T3, human EGFR ECD-Fc fusion protein (R&D Systems) (human, UniProt P00533 25-645).
T3 construct: extracellular domain; also called rhEGFR-Fc; EGFR-Fc; not shown: Fc part of the bought fusion protein, not described
Kind of assay: phage ELISA, Fab on phage, immobilized EGFR, no IgG.

Assay [4] concerns the target T4, chimeric cynomolgus-human EGFR (cynomolgus ECD, human trans-membrane …, UniProt P55245 25-1210 (rhesus entry)).
T4 construct: also called cynomolgus EGFR; chimeric cyno-human receptor
Kind of assay: FACS, CHO cells transfected with chimeric cynomolgus/human EGFR, IgG at 5 µg/ml.

The target of assay [5] is T3, human EGFR ECD-Fc fusion protein (R&D …). Kind of assay: phage ELISA, Fab on phage, immobilized EGFR, with competitor ICR10 (Domain I).
Assay [6] has the same target. Nature of the assay: phage ELISA, Fab on phage, immobilized EGFR, with competitor EGFR.1 (Domain II).
Assay [7] has the same target. Nature of the assay: phage ELISA, Fab on phage, immobilized EGFR, with competitor Cetuximab (Domain III).
The target is the same in assay [8]. Nature of the assay: phage ELISA, Fab on phage, immobilized EGFR, with competitor MatuzuMab (Domain III).
Assay [9] has as its target T1, human EGFR, full length. Nature of the assay: FACS on CHO cells stably expressing wtEGFR (CHO-wtEGFR).
The target in the next assay is T5, CHO-vIII (human, UniProt P00533).
T5 construct: expressed on CHO cells; also called EGFR variant III
Kind of assay: FACS on CHO cells expressing EGFR variant III (CHO-vIII).

Assay [10] deals with T4, chimeric cynomolgus-human EGFR. Kind of assay: FACS, CHO cells transfected with chimeric cynomolgus/human EGFR, IgG at 5 µg/ml. This is another data set of the same source. (In general: A flow cytometer gives signals particle by particle.)
The target in a further assay is T6, CHO-delta II.
T6 construct: also called EGFR HER3 swap varII ECD; domain II swap mutant
Nature of the assay: FACS on CHO cells expressing the domain II swap mutant (CHO-delta II).

The next assay concerns the target T7, CHO-delta IV.
T7 construct: also called EGFR HER3 swap varIV ECD; domain IV swap mutant
Nature of the assay: FACS on CHO cells expressing the domain IV swap mutant (CHO-delta IV).

For another assay, the target named is T8, CHO-delta III.
T8 construct: also called EGFR HER3 swap varIII ECD; domain III swap mutant
T8 chain: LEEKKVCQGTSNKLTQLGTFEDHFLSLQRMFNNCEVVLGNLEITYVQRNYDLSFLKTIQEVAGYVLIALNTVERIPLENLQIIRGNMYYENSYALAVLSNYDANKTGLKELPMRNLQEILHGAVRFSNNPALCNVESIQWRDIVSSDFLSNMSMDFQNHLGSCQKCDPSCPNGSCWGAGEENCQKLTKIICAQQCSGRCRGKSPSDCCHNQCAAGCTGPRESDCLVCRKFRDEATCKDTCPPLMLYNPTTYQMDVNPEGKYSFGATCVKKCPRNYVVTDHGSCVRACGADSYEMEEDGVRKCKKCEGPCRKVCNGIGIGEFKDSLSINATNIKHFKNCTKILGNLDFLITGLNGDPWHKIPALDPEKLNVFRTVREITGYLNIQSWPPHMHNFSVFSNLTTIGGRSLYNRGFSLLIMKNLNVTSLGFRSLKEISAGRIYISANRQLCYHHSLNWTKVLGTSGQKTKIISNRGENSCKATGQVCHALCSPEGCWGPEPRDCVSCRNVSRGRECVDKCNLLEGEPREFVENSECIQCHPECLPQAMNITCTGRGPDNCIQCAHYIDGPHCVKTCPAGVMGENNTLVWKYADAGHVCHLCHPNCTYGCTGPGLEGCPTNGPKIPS
Nature of the assay: FACS on CHO cells expressing the domain III swap mutant (CHO-delta III).

B1: PG4280 (antibody, IgG1, V domains shown)
VH: QVQLVQSGAEVKKPGASVKVSCKVSGYTLTELSMHWVRQAPGKGLEWMGGFDPEYGKTFFAQNFQGRVTMTEDTSADTAYMELSSLRSEDTAVYYCATEGYYETTTYYYNLFDSWGQGTLVTVSS
VL: not shown
notes: Mono-specific bivalent full length IgG1 with the common light chain; also called MF4280; MG4280
B1: the “EGFR blocking activity compared to cetuximab (inhibition of EGF-induced cell death of A431 cells)” value with human EGFR, full length [1] was 100%. In addition, the binding result is given as “no binding (tested: 5 µg/ml)” in assay [2] and “binds” in assay [4]. The OD in assay [3] is 2.55; in assay [5], 2.3; in assay [6], 2.13; in assay [7], 1.14; in [8] it was 0.613.

B2: PG4289 (antibody, IgG1, V domains shown)
VH: QVQLVQSGSELKKPGASVKVSCKTSGYTFTDYAMTWVRQAPGQGLEWMGWITTNTGDPTYAPGFTGRFVFSLDTSVSTAYLQISSLKAEDTAVYYCARVYHWIRGFEFWGQGTLVTVSS
VL: not shown
notes: Mono-specific bivalent full length IgG1 with the common light chain; also called MF4289; MG4289
In the case of B2, in the assay with human EGFR, full length [1], the “EGFR blocking activity compared to cetuximab (inhibition of EGF-induced cell death of A431 cells)” value was 80%. Also, the OD in [3] was 2.28; in [5] it was 2.05; in [6], 2.23; in [7], 2.22; in assay [8], 2.36. The binding result in assay [4] was “binds”.

B3: PG4003 (antibody, IgG1, V domains shown)
VH: QVQLVQSGSELKKPGASVKVSCKASGYTFPSFAMNWLRQAPGQGLEWMGWITTNTGDPTYAQGFSGRFVFSLDTSVSTAYLQISSLKAEDTAVYYCARVYNWIRGFDYWGQGTLVTVSS
VL: not shown
notes: Mono-specific bivalent full length IgG1 with the common light chain; also called MF4003; MG4003
As to B3, the binding result in the assay with human EGFR, full length [9] is reported as “binds”; with CHO-vIII, “no binding”; in [10] it was “binds”; with CHO-delta II, “binds”; in the assay with CHO-delta IV, “binds”; in the assay with CHO-delta III it was “binds”.

B4: PG3998 (antibody, IgG1, V domains shown)
VH: QVQLVQSGSELKKPGASVKVSCKASGYTFTNNAINWVRQAPGQGLEWMGWINTITGDPTYAQGFTGRFVFSLDTSVSTAYLQISSLKAEDTGVYYCAREEFLEWLFFDYWGQGTLVTVSS
VL: not shown
notes: Mono-specific bivalent full length IgG1 with the common light chain, from 293F cells; also called MF3998; MG3998
On to B4, for which the “EGFR blocking activity compared to cetuximab (inhibition of EGF-induced cell death of A431 cells)” value with human EGFR, full length [1] is greater than 100%. Further, the OD in [3] is 2.49; in [5] it was 2.23; in [6] it was 2.34; in assay [7], 0.101; in [8] it was 0.671. Also, the binding result in assay [4] is reported as “binds”.

B5: PG4010 (antibody, IgG1, V domains shown)
VH: B4 VH with I34M, T59S, S77N, G92A
VL: not shown
notes: Mono-specific bivalent full length IgG1 with the common light chain; also called MF4010; MG4010
In the case of B5, the binding result with human EGFR, full length [9] is given as “binds”; in [10], “binds”; in the assay with CHO-delta II, “binds”; with CHO-delta IV, “binds”; with CHO-delta III it was “no binding”.
